Molecular target: recombinant human ICAM-5 Fc Chimera (human) (UniProt Q9UMF0)
Experiment: pull-down; ICAM-5 Fc chimera covalently attached to magnetic Dynabeads; incubated with the 1.11 (membrane-associated) or 1.20 g/cm^3 (naked) viral density fraction for 1 h at 33°C, then overnight at 4°C; beads rinsed 2x for 10 min in PBS; bound virus read as viral titer (TCID50) after PBS plus 0.1% NP-40; control: nonspecific antibody-coated beads

Sequence of UniProt Q9UMF0 (Q9UMF0 32-835, stated change not applied): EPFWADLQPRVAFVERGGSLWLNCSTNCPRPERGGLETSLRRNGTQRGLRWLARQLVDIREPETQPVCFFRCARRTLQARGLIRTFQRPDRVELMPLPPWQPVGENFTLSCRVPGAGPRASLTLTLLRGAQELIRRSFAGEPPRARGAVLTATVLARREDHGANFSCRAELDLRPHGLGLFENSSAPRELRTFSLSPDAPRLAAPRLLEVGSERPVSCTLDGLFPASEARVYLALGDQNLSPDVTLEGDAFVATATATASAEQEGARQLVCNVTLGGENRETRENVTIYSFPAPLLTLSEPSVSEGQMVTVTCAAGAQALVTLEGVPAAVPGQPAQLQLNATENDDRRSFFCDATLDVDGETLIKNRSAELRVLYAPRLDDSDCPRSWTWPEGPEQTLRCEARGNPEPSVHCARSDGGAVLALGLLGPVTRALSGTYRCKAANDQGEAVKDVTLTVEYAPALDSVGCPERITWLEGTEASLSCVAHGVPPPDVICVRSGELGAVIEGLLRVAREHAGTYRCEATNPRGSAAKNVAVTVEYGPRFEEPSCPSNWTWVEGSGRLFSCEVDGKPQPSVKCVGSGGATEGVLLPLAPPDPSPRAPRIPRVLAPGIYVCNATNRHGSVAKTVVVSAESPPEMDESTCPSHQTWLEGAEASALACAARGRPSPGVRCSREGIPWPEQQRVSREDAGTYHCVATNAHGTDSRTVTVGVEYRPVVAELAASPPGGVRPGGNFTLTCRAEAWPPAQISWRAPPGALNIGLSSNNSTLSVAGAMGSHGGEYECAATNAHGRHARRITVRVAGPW

Enterovirus D68 (EV-D68) viral particles, strain US/MO/14-18947 (complex)
fold viral titer immunoprecipitated over control beads: 1000 fold
